Data as given in US20130243743A1 (ACCELERON PHARMA, published 2013).
Read-outs that look alike come from different tables or passages of the source.

T1: Growth and Differentiation Factor-11 (GDF11) (UniProt O95390 299-407)
T1 sequence (looked up): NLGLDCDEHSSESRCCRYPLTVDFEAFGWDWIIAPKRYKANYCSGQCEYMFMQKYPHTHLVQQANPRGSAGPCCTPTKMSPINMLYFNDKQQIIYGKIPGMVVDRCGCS

T2: Activin A (UniProt P08476 311-426)
T2 sequence (looked up): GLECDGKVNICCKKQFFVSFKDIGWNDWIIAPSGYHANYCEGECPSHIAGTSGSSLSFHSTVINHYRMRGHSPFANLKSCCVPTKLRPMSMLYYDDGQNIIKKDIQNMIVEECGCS


How the values were obtained:
[1] = molecular target: T1, Growth and Differentiation Factor-11 …; assay: cell-based or functional assay
Activin A [2] = molecular target: T2, Activin A; assay: cell-based or functional assay
[3] = molecular target: T1, Growth and Differentiation Factor-11 …; assay: Biacore SPR; ligand coupled to the device, receptor flowed (table reproduced from WO2006/012627); +15tail variant; ligand coupled to the device, receptor flowed over it (data from WO2006/012627)
Activin A [4] = molecular target: T2, Activin A; assay: as above

Binder | IC50, inhibition of ligand signalling, A-204 reporter gene assay (conditioned media) [1] [µg/mL] | IC50, inhibition of ligand signalling, A-204 reporter gene assay (conditioned media) (Activin A [2]) [µg/mL] | Kd [3] [nM] | Kd (Activin A [4]) [nM] | IC50, inhibition of ligand signalling, A-204 reporter gene assay (conditioned media) ([1]; record 2) [µg/mL] | IC50, inhibition of ligand signalling, A-204 reporter gene assay (conditioned media) (Activin A [2]; record 2) [µg/mL]
ActRIIB(20-134)-hFc (Fc fusion, not shown: a dimerising Fc or GST) GRGEAETRECIYYNANWELERTNQSGLERCEGEQDKRLHCYASWRNSSGTIELVKKGCWLDDFNCYDRQECVATEENPQVYFCCCEGNFCNERFTHLPEAGGPEVTYEPPPTAPT | 0.045 | 0.022 |  |  |  | 
ActRIIB(20-128)-hFc (Fc fusion, not shown: a dimerising Fc or GST) GRGEAETRECIYYNANWELERTNQSGLERCEGEQDKRLHCYASWRNSSGTIELVKKGCWLDDFNCYDRQECVATEENPQVYFCCCEGNFCNERFTHLPEAGGPEVTYEP | 0.13 | 0.158 |  |  |  | 
ActRIIB(20-132)-hFc (Fc fusion, not shown: a dimerising Fc or GST) GRGEAETRECIYYNANWELERTNQSGLERCEGEQDKRLHCYASWRNSSGTIELVKKGCWLDDFNCYDRQECVATEENPQVYFCCCEGNFCNERFTHLPEAGGPEVTYEPPPTA | 0.087 | 0.032 |  |  |  | 
ActRIIB(20-131)-hFc (Fc fusion, not shown: a dimerising Fc or GST) GRGEAETRECIYYNANWELERTNQSGLERCEGEQDKRLHCYASWRNSSGTIELVKKGCWLDDFNCYDRQECVATEENPQVYFCCCEGNFCNERFTHLPEAGGPEVTYEPPPT | 0.183 | 0.201 |  |  | 0.12 | 0.044

The next lines start with the values.

IC50, inhibition of ligand signalling, A-204 reporter gene assay (conditioned media) [1] [µg/mL] | IC50, inhibition of ligand signalling, A-204 reporter gene assay (conditioned media) (Activin A [2]) [µg/mL] | Kd [3] [nM] | Kd (Activin A [4]) [nM] | IC50, inhibition of ligand signalling, A-204 reporter gene assay (conditioned media) ([1]; record 2) [µg/mL] | IC50, inhibition of ligand signalling, A-204 reporter gene assay (conditioned media) (Activin A [2]; record 2) [µg/mL] | Binder
0.121 | 0.325 |  |  |  |  | ActRIIB(21-131)-hFc (Fc fusion, not shown: a dimerising Fc or GST) RGEAETRECIYYNANWELERTNQSGLERCEGEQDKRLHCYASWRNSSGTIELVKKGCWLDDFNCYDRQECVATEENPQVYFCCCEGNFCNERFTHLPEAGGPEVTYEPPPT
 |  | 19 | ~26 |  |  | Soluble ActRIIB-Fc +15tail (Fc fusion, not shown: linker and Fc) GRGEAETRECIYYNANWELERTNQSGLERCEGEQDKRLHCYASWANSSGTIELVKKGCWLDDFNCYDRQECVATEENPQVYFCCCEGNFCNERFTHLPEAGGPEVTYEPPPTAPT
0.069 | 0.105 |  |  |  |  | ActRIIB(24-131)-hFc (Fc fusion, not shown: a dimerising Fc or GST) AETRECIYYNANWELERTNQSGLERCEGEQDKRLHCYASWRNSSGTIELVKKGCWLDDFNCYDRQECVATEENPQVYFCCCEGNFCNERFTHLPEAGGPEVTYEPPPT
0.071 | 0.1 |  |  |  |  | ActRIIB(22-131)-hFc (Fc fusion, not shown: a dimerising Fc or GST) GEAETRECIYYNANWELERTNQSGLERCEGEQDKRLHCYASWRNSSGTIELVKKGCWLDDFNCYDRQECVATEENPQVYFCCCEGNFCNERFTHLPEAGGPEVTYEPPPT
0.06 | 0.043 |  |  |  |  | ActRIIB(23-131)-hFc (Fc fusion, not shown: a dimerising Fc or GST) EAETRECIYYNANWELERTNQSGLERCEGEQDKRLHCYASWRNSSGTIELVKKGCWLDDFNCYDRQECVATEENPQVYFCCCEGNFCNERFTHLPEAGGPEVTYEPPPT
